# Legend:
# FGFR1 = FGFR1 (UniProt P11362); assay: phosphorylation enrichment, bacterial display (enrichment ratio); higher = better substrate or ligand; peptides without Tyr show the background
# Fes = Fes (UniProt P07332); assay: as above
# EPHB2 = EPHB2 (UniProt P29323); assay: as above
# Fyn = Fyn (UniProt P06241); assay: as above
# Hck = Hck (UniProt P08631); assay: as above
# c-Abl (mouse) = assay: as above
# AncSZ = assay: as above
# c-Src = assay: as above
# Fer (mouse) = assay: as above
# EPHB1 = EPHB1 (UniProt P54762); assay: as above
# FGFR3 = FGFR3 (UniProt P22607); assay: as above
# MERTK = MERTK (UniProt Q12866); assay: as above
# Jak2 = Jak2 (UniProt O60674); assay: as above
# SHP2-C SH2 = assay: SH2 binding enrichment of the phosphorylated peptide, bacterial display (enrichment ratio); higher = better substrate or ligand; peptides without Tyr show the background
# c-Src SH2 = assay: as above
# Grb2 SH2 = Grb2 SH2 (UniProt P62993); assay: as above
# 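Wherever SH2 binding enrichment of the phosphorylated peptide, bacterial display is given: peptide library displayed on the E. coli surface as eCPX fusions, selected cells deep-sequenced, score is each peptide's frequency after selection divided by its frequency in the input.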
# 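Wherever phosphorylation enrichment, bacterial display is given: 11-residue human phosphosite peptides and single-mutation variants displayed on the E. coli surface, counted by deep sequencing, each peptide's frequency after selection divided by its frequency in the unselected input library; frequency after pTyr selection over input frequency; kinase dosed for 20-30% of maximal phosphorylation in three min.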
# Chain of EPHB1 (P54762 whole entry, looked up): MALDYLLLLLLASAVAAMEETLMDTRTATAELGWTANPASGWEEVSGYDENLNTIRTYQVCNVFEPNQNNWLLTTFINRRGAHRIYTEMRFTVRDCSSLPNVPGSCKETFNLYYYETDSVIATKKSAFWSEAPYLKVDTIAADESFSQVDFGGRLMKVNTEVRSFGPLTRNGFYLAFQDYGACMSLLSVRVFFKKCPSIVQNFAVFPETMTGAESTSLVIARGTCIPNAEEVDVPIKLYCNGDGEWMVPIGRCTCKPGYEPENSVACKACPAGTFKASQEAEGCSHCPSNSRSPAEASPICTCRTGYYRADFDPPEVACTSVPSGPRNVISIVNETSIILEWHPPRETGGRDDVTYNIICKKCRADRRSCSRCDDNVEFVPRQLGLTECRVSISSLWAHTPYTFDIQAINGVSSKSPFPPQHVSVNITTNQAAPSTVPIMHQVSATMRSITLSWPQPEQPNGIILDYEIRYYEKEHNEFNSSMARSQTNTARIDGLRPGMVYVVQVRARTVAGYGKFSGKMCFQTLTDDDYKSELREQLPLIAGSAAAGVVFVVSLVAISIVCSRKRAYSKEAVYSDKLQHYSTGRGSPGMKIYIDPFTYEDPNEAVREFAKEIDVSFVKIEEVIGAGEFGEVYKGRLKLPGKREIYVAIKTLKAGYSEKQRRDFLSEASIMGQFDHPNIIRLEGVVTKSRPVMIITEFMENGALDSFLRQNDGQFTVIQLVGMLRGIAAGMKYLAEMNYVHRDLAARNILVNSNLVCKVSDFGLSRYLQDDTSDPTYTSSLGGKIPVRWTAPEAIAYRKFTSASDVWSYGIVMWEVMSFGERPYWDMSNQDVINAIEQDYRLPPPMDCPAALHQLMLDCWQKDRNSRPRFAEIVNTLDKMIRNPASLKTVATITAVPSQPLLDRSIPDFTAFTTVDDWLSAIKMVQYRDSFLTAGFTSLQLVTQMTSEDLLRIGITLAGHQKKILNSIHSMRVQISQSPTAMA
# Chain of Jak2 (O60674 whole entry, looked up): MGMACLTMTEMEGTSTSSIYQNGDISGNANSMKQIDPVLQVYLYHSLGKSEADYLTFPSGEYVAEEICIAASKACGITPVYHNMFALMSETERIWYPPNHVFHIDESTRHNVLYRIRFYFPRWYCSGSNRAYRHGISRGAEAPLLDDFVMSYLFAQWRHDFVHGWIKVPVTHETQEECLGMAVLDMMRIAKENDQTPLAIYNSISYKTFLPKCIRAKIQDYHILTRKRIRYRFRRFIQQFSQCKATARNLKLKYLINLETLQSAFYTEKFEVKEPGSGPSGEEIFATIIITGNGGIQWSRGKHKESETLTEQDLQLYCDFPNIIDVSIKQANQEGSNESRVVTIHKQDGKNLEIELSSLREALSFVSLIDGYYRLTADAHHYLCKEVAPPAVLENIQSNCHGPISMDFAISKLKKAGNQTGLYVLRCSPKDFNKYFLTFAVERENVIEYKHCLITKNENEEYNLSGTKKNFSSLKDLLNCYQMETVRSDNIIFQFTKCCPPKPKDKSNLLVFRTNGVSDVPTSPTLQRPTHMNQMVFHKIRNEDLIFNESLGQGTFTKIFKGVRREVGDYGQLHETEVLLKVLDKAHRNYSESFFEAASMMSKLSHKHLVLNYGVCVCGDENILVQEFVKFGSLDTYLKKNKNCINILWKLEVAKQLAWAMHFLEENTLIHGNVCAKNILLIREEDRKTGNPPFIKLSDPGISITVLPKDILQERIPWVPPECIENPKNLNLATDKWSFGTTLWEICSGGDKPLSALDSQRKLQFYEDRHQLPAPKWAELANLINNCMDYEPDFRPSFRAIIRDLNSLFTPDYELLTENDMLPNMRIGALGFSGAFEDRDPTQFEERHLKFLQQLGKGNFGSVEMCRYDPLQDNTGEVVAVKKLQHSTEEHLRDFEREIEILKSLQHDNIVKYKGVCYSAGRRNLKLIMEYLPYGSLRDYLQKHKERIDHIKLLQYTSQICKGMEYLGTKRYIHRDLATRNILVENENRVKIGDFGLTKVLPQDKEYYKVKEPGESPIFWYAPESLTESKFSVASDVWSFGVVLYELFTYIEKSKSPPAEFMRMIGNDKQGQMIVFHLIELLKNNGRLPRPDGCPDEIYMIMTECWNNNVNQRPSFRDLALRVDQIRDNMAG
# Chain of FGFR3 (P22607 whole entry, looked up): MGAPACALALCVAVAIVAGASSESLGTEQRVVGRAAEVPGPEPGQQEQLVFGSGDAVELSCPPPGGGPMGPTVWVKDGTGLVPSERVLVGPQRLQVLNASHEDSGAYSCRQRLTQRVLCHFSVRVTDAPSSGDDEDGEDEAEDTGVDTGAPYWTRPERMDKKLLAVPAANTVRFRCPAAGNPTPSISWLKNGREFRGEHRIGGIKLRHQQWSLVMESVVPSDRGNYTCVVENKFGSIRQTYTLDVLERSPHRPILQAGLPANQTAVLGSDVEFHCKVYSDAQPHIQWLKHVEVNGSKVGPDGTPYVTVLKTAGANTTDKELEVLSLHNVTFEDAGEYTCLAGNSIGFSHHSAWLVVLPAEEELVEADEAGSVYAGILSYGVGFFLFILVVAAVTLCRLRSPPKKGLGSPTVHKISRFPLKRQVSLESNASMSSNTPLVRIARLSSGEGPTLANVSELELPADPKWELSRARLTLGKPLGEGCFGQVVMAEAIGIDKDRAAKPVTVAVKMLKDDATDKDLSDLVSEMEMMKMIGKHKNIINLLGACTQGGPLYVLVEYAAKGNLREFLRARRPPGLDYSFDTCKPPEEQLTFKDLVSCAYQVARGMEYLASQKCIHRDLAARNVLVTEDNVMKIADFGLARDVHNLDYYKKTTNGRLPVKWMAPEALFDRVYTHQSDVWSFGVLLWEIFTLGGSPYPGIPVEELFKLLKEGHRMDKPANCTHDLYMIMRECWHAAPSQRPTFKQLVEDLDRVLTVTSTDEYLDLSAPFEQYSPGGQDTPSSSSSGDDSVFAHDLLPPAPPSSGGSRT
# Chain of FGFR1 (P11362 whole entry, looked up): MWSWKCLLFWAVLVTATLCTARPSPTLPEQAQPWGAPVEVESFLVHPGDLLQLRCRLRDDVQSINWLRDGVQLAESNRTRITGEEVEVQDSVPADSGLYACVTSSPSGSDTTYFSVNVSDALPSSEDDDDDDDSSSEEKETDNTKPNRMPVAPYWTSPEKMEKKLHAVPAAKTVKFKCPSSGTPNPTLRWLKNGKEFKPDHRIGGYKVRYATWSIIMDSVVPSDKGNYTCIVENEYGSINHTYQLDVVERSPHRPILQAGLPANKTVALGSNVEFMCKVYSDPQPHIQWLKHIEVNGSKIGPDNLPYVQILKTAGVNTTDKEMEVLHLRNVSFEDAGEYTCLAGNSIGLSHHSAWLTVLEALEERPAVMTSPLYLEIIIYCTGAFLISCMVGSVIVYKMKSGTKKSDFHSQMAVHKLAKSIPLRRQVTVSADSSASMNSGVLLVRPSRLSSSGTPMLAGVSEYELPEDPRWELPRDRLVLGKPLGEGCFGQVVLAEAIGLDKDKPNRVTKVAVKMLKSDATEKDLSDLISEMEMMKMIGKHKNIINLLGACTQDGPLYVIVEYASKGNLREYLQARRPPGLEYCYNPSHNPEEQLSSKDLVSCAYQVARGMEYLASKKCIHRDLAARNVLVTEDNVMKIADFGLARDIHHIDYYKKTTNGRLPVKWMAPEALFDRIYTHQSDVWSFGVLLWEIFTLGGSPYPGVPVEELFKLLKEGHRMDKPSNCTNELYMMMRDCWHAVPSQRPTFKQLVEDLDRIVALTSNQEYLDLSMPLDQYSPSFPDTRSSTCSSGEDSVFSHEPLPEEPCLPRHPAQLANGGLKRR
# Chain of EPHB2 (P29323 whole entry, looked up): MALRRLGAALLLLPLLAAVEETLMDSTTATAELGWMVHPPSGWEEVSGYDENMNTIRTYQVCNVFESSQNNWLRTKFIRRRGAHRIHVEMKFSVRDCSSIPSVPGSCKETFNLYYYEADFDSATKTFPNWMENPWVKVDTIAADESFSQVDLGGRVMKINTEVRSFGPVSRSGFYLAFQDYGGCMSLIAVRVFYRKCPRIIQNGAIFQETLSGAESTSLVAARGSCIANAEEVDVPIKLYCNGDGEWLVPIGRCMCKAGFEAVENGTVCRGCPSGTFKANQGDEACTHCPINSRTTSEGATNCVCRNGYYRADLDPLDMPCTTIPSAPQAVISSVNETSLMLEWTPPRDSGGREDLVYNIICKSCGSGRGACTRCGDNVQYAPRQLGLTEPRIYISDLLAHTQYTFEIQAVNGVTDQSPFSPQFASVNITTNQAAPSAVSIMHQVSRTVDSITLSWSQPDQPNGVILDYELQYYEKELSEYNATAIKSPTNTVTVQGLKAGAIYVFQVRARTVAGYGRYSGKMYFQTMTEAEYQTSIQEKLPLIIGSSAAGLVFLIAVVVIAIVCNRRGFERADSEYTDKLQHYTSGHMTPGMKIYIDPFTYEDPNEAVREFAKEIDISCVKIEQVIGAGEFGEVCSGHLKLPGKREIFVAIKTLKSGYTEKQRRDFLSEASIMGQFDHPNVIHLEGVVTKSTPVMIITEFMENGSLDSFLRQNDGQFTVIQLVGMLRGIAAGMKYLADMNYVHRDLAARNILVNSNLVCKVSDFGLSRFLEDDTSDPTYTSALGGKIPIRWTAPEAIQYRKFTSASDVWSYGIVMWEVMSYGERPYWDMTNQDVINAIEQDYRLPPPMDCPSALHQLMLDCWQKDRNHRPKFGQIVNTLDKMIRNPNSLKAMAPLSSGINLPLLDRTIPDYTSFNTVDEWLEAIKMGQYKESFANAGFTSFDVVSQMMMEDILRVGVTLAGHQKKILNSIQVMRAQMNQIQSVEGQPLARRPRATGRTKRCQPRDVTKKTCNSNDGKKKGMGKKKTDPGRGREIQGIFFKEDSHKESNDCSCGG
Sequence,SH2 binding enrichment (SHP2-C SH2),SH2 binding enrichment (c-Src SH2),SH2 binding enrichment (Grb2 SH2),phosphorylation enrichment (FGFR1),phosphorylation enrichment (Fes),phosphorylation enrichment (EPHB2),phosphorylation enrichment (Fyn),phosphorylation enrichment (Hck),phosphorylation enrichment (c-Abl (mouse)),phosphorylation enrichment (AncSZ),phosphorylation enrichment (c-Src),phosphorylation enrichment (Fer (mouse)),phosphorylation enrichment (EPHB1),phosphorylation enrichment (FGFR3),phosphorylation enrichment (MERTK),phosphorylation enrichment (Jak2)
AACQHYGVHTC [NR4A2_Y275_R278H],0.946,0.584,0.903,0.413,0.63,0.471,0.433,0.443,0.534,0.624,0.345,0.347,0.445,0.585,0.406,0.432
AAGGRYFGLVG [HARS1_Y363_D364Y_YF],0.828,0.608,1.06,0.375,0.764,0.377,0.396,0.354,0.626,0.516,0.461,0.389,0.312,0.471,0.395,0.575
AALLNYKAGRD [GRIN2A_Y737_V734L],0.762,0.523,0.861,0.508,0.687,0.465,0.494,0.527,0.454,0.623,0.472,0.384,0.409,0.494,0.468,0.508
AAVDEYLEHRR [FAM221A_Y17_Y20H],0.614,0.418,0.786,0.467,1.03,0.581,0.48,0.452,0.778,0.96,0.389,0.421,0.562,0.695,0.388,0.875
ADKAAYLQSLN [MYH2_Y389],0.8,0.553,0.86,0.506,0.789,0.561,0.536,0.516,0.546,0.779,0.45,0.539,0.458,0.572,0.476,0.777

# Second part, led by results:
SH2 binding enrichment (SHP2-C SH2),SH2 binding enrichment (c-Src SH2),SH2 binding enrichment (Grb2 SH2),Sequence,phosphorylation enrichment (FGFR1),phosphorylation enrichment (Fes),phosphorylation enrichment (EPHB2),phosphorylation enrichment (Fyn),phosphorylation enrichment (Hck),phosphorylation enrichment (c-Abl (mouse)),phosphorylation enrichment (AncSZ),phosphorylation enrichment (c-Src),phosphorylation enrichment (Fer (mouse)),phosphorylation enrichment (EPHB1),phosphorylation enrichment (FGFR3),phosphorylation enrichment (MERTK),phosphorylation enrichment (Jak2)
0.503,4.85,0.803,AAVPAYDKIRV [STXBP2_Y401],0.321,0.714,0.355,0.344,1.36,0.569,0.64,0.452,2.02,0.372,0.541,0.48,0.874
0.527,0.477,0.751,ADARMCGVLPW [PLP1_Y207_Y207C],0.489,1,0.524,0.436,0.488,0.746,0.93,0.487,0.44,0.606,0.671,0.436,1.1
0.519,0.327,0.573,ADARMYGVLLW [PLP1_Y207_P211L],0.591,1.39,0.662,3.59,2.42,0.741,1.12,4.01,0.616,0.559,0.751,0.544,1.03

# — the supplement of paper PMC10065799, “High-throughput profiling of sequence recognition by tyrosine kinases and SH2 domains using bacterial peptide display” (eLife, 2023)
